# Measurements reported in US20220018842A1 (FUKUSHIMA MEDICAL UNIVERSITY, published 2022).
# T1: claudin 6 (CLDN6) protein (human, UniProt P56747 1-220)
# T1 construct: also called human CLDN6 protein
# T1 sequence: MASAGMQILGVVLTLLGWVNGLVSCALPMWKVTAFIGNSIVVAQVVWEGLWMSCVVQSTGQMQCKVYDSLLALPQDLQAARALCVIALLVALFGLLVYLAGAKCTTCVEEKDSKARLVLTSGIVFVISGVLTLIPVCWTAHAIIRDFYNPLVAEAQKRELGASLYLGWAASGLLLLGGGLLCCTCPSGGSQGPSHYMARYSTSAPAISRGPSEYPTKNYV
# T2: antigen peptide having the amino acid sequence from the 208th position to the 220th position of the human … (human)
# T2 construct: Coupled to KLH for immunisation
# T2 peptide: SRGPSEYPTKNYV
# T3: CLDN1 (UniProt O95832 1-211, limits assumed)
# T3 construct: whole, on cells; also called claudin 1
# T3 sequence (looked up): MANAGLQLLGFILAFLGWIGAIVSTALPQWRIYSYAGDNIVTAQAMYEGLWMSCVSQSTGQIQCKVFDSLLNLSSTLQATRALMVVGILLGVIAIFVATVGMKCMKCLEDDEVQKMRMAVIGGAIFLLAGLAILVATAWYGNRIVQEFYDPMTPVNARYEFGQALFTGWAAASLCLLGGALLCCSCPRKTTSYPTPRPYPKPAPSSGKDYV
# T4: CLDN4 (UniProt O14493 1-209, limits assumed)
# T4 construct: whole, on cells; also called claudin 4
# T4 sequence (looked up): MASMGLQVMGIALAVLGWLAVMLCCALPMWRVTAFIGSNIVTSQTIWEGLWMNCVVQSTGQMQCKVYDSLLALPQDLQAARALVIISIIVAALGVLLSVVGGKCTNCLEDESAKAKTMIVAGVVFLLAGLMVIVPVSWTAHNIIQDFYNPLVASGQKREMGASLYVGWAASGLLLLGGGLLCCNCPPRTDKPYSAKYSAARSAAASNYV
# T5: CLDN5 (UniProt O00501 1-218, limits assumed)
# T5 construct: whole, on cells; also called claudin 5
# T5 sequence (looked up): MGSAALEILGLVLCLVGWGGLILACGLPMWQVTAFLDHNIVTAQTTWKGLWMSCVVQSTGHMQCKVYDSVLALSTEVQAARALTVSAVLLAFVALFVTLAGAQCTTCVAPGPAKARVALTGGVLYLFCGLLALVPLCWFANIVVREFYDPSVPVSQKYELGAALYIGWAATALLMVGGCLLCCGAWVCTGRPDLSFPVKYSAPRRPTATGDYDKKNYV
# T6: CLDN9 (UniProt O95484 1-217, limits assumed)
# T6 construct: whole, on cells; also called claudin 9
# T6 sequence (looked up): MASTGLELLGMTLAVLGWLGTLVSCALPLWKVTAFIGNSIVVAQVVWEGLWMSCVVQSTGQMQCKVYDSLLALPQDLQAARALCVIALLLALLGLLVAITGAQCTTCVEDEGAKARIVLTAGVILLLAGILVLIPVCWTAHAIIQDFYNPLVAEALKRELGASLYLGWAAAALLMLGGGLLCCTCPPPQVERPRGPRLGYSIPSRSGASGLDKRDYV
# Assays:
# [1] = molecular target: T1, claudin 6 (CLDN6) protein; test: Western blot of extract of HEK293T cells expressing CLDN6
# [2] = molecular target: T2, antigen peptide having the amino acid …; test: ELISA of hybridoma culture supernatant on coated antigen peptide
# Experimental: After 4 days of culture, the medium was exchanged with 100 μL of hybridoma medium. Positive clones were screened by ELISA using 50 μL of the culture supernatant 2 days after the exchange. The screening was performed by the following procedure.
# First, the antigen peptide solution was diluted to 3 μg/mL, 100 μL was added to each well of a 96-well ELISA plate, and the mixture was allowed to stand overnight at 37° C. Then, the antigen peptide solution was removed from each well, the wells were washed with 200 μL of PBS, then a blocking solution (1% bovine serum albumin/PBS) was added, and the mixture was allowed to stand at 37° C. for 1 hour. Then, the blocking solution was removed from each well, the wells washed with 200 μL of PBS, 50 μL of culture supernatant was added, and the mixture was reacted at 37° C. for 1 hour. After removing the culture supernatant from each well, the wells were washed 3 times with 200 μL of PBS. […] After that, the secondary antibody solution was removed from each well, the wells were washed 3 times with PBS, and then the color was developed using TMB Substrate Set (BioLegend) with the method recommended by the manufacturer, and the absorbance was measured.
# CLDN1 = molecular target: T3, CLDN1; test: Western blot of extract of HEK293T cells expressing the claudin; undiluted culture supernatant
# Experimental: (§1) 48 hours after the introduction of each gene, protein was extracted using a lysate in which the proteolytic enzyme inhibitor, Complete mini EDTA-free (Roche Diagnostics) was added to CelLytic™ MT Cell Lysis Reagent (Sigma-Aldrich) at a concentration of […]. SDS-PAGE, […], and antibody reaction were sequentially performed according to a standard protocol, chemiluminescence was performed by ECL™ Prime Western Blotting Detection reagent (GE Healthcare), and images were taken using CCD imager Image Quant LAS4000 (GE Healthcare). The primary antibody was reacted overnight at 4° C. using a culture supernatant stock solution of αCLDN6 #C6C15-1, and the secondary antibodies were reacted for 30 minutes using ECL™ Rat IgG, HRP-linked whole antibody (Sigma-Aldrich) diluted 2,000-fold with PBS, and ECL™ Rabbit IgG and HRP-linked whole antibody (Sigma-Aldrich) described in Table 1 diluted 5,000-fold with PBS, respectively.
# (§2) In order to confirm the antigen specificity and cross-reactivity of the anti-CLDN6 monoclonal antibody (αCLDN6 #C6C15-1) produced in the Examples, Western blotting was performed for CLDN1, CLDN4, CLDN5, CLDN6, and CLDN9 for verification.
# CLDN4 = molecular target: T4, CLDN4; test: as above
# Experimental: as §1, §2
# CLDN5 = molecular target: T5, CLDN5; test: as above
# Experimental: as §1, §2
# CLDN9 = molecular target: T6, CLDN9; test: as above
# Experimental: as §1, §2
binder,measurement,setting,value
"Rat αCLDN6 #C6C15-1 monoclonal antibody (antibody, V domains shown, Rat hybridoma monoclonal antibody (detected with anti-rat IgG), used as undiluted culture supernatant; constant regions and isotype are not; also called αCLDN6 #C6C15-1 antibody; ACLDN6 #C6C15-1 antibody) VH: EVKLVETGGGLVKPGGSLRLSCATSGFNFNDYFMNWVRQAPGKGLEWVAQIRNKNYNYATYYAESLEGRVTISRDDSKSSVYLQVSSLRAEDTAIYYCTRGAYWGQGVMVTVSS VL: DIVMTQSPSFLSASVGERVTLSCRASQNINKYLDWYQQKLGEAPKLLIYDTNNLHAGIPSRFSGSGSGTDYTLTISSLQPEDVATYFCLQRNSWPYTFGAGTKLELK",binding result,[1],binds
same,binding result,[2],binds
same,binding result,CLDN1,no binding
same,binding result,CLDN4,no binding
same,binding result,CLDN5,no binding
same,binding result,CLDN9,no binding
